From the supplement of paper PMC7877785
± gives the uncertainty stated by the source.

Assay: self-splicing fitness, log relative to wild type (ln ratio); higher = more splicing; Tetrahymena group I intron in knt gene, E. coli kanamycin selection, DiMSum; sequences stand for … in CUCUCU…GGAGGGAAAAGUUAUCAGGCAUGCACCUGGUAGCUAGUCUUUAAACCAAUAGAUUGCAUCGGUUUAAAAGGCAAGACCGUCAAAUUGCGGGAAAGGGGUCAACAGCCGUUCAGUACCAAGUCUCAGGGGAAACUUUGAGAUGGCCUUGCAAAGGGUAUGGUAAUAAGCUGACGGACAUGGUCCUAACCACGCAGCCAAGUCCUAAGUCAACAGAUCUUCUGUUGAUAUGGAUGCAGUUCACAGACUAAAUGUCGGUCGGGGAAGAUGUAUUCUUCUCAUAAGAUAUAGUCGGACCUCUCCUUAAUGGGAGCUAGCGGAUGAAGUGAUGCAACACUGGAGCCGCUGGGAACUAAUUUGUAUGCGAAAGUAUAUUGAUUAGUUUUGGAGUACUCGUGGUCG
Procedure, shortened: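 The eight P1ex-region nucleotides of an intron in the knt kanamycin-resistance gene on pET-22b(+) were all randomised and the library put into E. coli BL21(DE3). Six replicate transformations were grown overnight at 37°C or 30°C on LB agar with or without 25 μg/mL kanamycin, together with 100 μg/mL carbenicillin, 50 μM IPTG and 0.2% rhamnose. Colonies were pooled and amplicon-sequenced on an Illumina HiSeq 2500. Fitness from DiMSum is the error-weighted combination of wild-type-normalised replicate fold changes, kanamycin over none.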

With CGUAAGCAAUAUUACGAUUG the “self-splicing fitness (ln)” value (30 °C) was -0.745 ± 0.079 and the “self-splicing fitness (ln)” value (37 °C) was -0.605 ± 0.11.

In the case of CGUAAGCAAUAUUACGCCGA, the “self-splicing fitness (ln)” value (30 °C) is reported as -3.5 ± 0.25 and the “self-splicing fitness (ln)” value (37 °C) is reported as -1.44 ± 0.14.

For CGUAAGCAAUAUUACGCGAA, the “self-splicing fitness (ln)” value (30 °C) was -3.5 ± 0.24 and the “self-splicing fitness (ln)” value (37 °C) was -3.88 ± 0.39.

In the case of CGUAAGCAAUAUUACGCUAC, the “self-splicing fitness (ln)” value (37 °C) is reported as -1.98 ± 0.4.

In the case of CGUAAGCAAUAUUACGCUUC, the “self-splicing fitness (ln)” value (37 °C) is reported as -2.52 ± 0.45.

With CGUAAGCAAUAUUACGGGAA the “self-splicing fitness (ln)” value (30 °C) was -3.04 ± 0.41 and the “self-splicing fitness (ln)” value (37 °C) was -1.9 ± 0.44.

In the case of CGUAAGCAAUAUUACGGUAG, the “self-splicing fitness (ln)” value (30 °C) is reported as -2.56 ± 0.14 and the “self-splicing fitness (ln)” value (37 °C) is reported as -1.4 ± 0.1.

With CGUAAGCAAUAUUACGGUCU the “self-splicing fitness (ln)” value (30 °C) was -2.56 ± 0.092 and the “self-splicing fitness (ln)” value (37 °C) was -1.46 ± 0.081.

For CGUAAGCAAUAUUACGGUUG, the “self-splicing fitness (ln)” value (30 °C) was -0.897 ± 0.061 and the “self-splicing fitness (ln)” value (37 °C) was -0.159 ± 0.078.

For CGUAAGCAAUAUUACGUAGG, the “self-splicing fitness (ln)” value (30 °C) was -1.09 ± 0.082 and the “self-splicing fitness (ln)” value (37 °C) was -0.149 ± 0.11.

In the case of CGUAAGCAAUAUUACGUCAU, the “self-splicing fitness (ln)” value (30 °C) is reported as -3.23 ± 0.17 and the “self-splicing fitness (ln)” value (37 °C) is reported as -2.38 ± 0.17.

In the case of CGUAAGCAAUAUUACGUUGG, the “self-splicing fitness (ln)” value (30 °C) is reported as -1.93 ± 0.12 and the “self-splicing fitness (ln)” value (37 °C) is reported as -0.912 ± 0.13.

In the case of CGUCAGCAAUAUUACGAAAU, the “self-splicing fitness (ln)” value (30 °C) is reported as -3.61 ± 0.23 and the “self-splicing fitness (ln)” value (37 °C) is reported as -2.6 ± 0.22.

With CGUCAGCAAUAUUACGAAUA the “self-splicing fitness (ln)” value (30 °C) was -2.58 ± 0.16 and the “self-splicing fitness (ln)” value (37 °C) was -1.98 ± 0.16.

For CGUCAGCAAUAUUACGAAUG, the “self-splicing fitness (ln)” value (30 °C) was -0.494 ± 0.077 and the “self-splicing fitness (ln)” value (37 °C) was -0.0535 ± 0.093.

In the case of CGUCAGCAAUAUUACGAGCA, the “self-splicing fitness (ln)” value (30 °C) is reported as -0.74 ± 0.14 and the “self-splicing fitness (ln)” value (37 °C) is reported as -0.627 ± 0.14.

With CGUCAGCAAUAUUACGAUAC the “self-splicing fitness (ln)” value (30 °C) was -2.65 ± 0.14 and the “self-splicing fitness (ln)” value (37 °C) was -1.38 ± 0.12.

In the case of CGUCAGCAAUAUUACGCACG, the “self-splicing fitness (ln)” value (30 °C) is reported as -2.16 ± 0.11 and the “self-splicing fitness (ln)” value (37 °C) is reported as -1.22 ± 0.12.

For CGUCAGCAAUAUUACGCAUG, the “self-splicing fitness (ln)” value (30 °C) was -1.06 ± 0.07 and the “self-splicing fitness (ln)” value (37 °C) was 0.0876 ± 0.082.

With CGUCAGCAAUAUUACGCCAG the “self-splicing fitness (ln)” value (30 °C) was -0.944 ± 0.15 and the “self-splicing fitness (ln)” value (37 °C) was -0.48 ± 0.23.

For CGUCAGCAAUAUUACGCGCA, the “self-splicing fitness (ln)” value (30 °C) was -1.1 ± 0.14 and the “self-splicing fitness (ln)” value (37 °C) was -0.181 ± 0.13.

In the case of CGUCAGCAAUAUUACGCGUG, the “self-splicing fitness (ln)” value (30 °C) is reported as -0.575 ± 0.054 and the “self-splicing fitness (ln)” value (37 °C) is reported as -0.39 ± 0.066.

For CGUCAGCAAUAUUACGCUAU, the “self-splicing fitness (ln)” value (30 °C) was -3.14 ± 0.19 and the “self-splicing fitness (ln)” value (37 °C) was -1.55 ± 0.17.

For CGUCAGCAAUAUUACGGCGC, the “self-splicing fitness (ln)” value (30 °C) was -3.38 ± 0.37 and the “self-splicing fitness (ln)” value (37 °C) was -1.3 ± 0.35.

With CGUCAGCAAUAUUACGGGAC the “self-splicing fitness (ln)” value (30 °C) was -3.95 ± 0.25 and the “self-splicing fitness (ln)” value (37 °C) was -1.73 ± 0.23.

In the case of CGUCAGCAAUAUUACGGGAG, the “self-splicing fitness (ln)” value (30 °C) is reported as -2.36 ± 0.098 and the “self-splicing fitness (ln)” value (37 °C) is reported as -0.946 ± 0.11.

In the case of CGUCAGCAAUAUUACGGGUU, the “self-splicing fitness (ln)” value (30 °C) is reported as -3.44 ± 0.17 and the “self-splicing fitness (ln)” value (37 °C) is reported as -2.56 ± 0.15.

In the case of CGUCAGCAAUAUUACGGUAU, the “self-splicing fitness (ln)” value (30 °C) is reported as -2.04 ± 0.11 and the “self-splicing fitness (ln)” value (37 °C) is reported as -2.59 ± 0.16.

For CGUCAGCAAUAUUACGGUGA, the “self-splicing fitness (ln)” value (30 °C) was -2.52 ± 0.11 and the “self-splicing fitness (ln)” value (37 °C) was -2.81 ± 0.16.

In the case of CGUCAGCAAUAUUACGGUUU, the “self-splicing fitness (ln)” value (30 °C) is reported as -2.39 ± 0.098 and the “self-splicing fitness (ln)” value (37 °C) is reported as -1.97 ± 0.097.

In the case of CGUCAGCAAUAUUACGUAUG, the “self-splicing fitness (ln)” value (30 °C) is reported as -0.163 ± 0.12 and the “self-splicing fitness (ln)” value (37 °C) is reported as 0.188 ± 0.13.

For CGUCAGCAAUAUUACGUCCG, the “self-splicing fitness (ln)” value (30 °C) was -1.03 ± 0.11 and the “self-splicing fitness (ln)” value (37 °C) was -0.273 ± 0.14.

For CGUCAGCAAUAUUACGUCCU, the “self-splicing fitness (ln)” value (30 °C) was -1.88 ± 0.081 and the “self-splicing fitness (ln)” value (37 °C) was -1.27 ± 0.098.

For CGUCAGCAAUAUUACGUCUU, the “self-splicing fitness (ln)” value (30 °C) was -2.3 ± 0.14 and the “self-splicing fitness (ln)” value (37 °C) was -0.743 ± 0.11.

In the case of CGUCAGCAAUAUUACGUGAU, the “self-splicing fitness (ln)” value (30 °C) is reported as -2.04 ± 0.1 and the “self-splicing fitness (ln)” value (37 °C) is reported as -1.18 ± 0.13.

For CGUCAGCAAUAUUACGUGCA, the “self-splicing fitness (ln)” value (30 °C) was -0.497 ± 0.057 and the “self-splicing fitness (ln)” value (37 °C) was -0.0444 ± 0.072.

With CGUCAGCAAUAUUACGUGCC the “self-splicing fitness (ln)” value (30 °C) was -0.61 ± 0.16 and the “self-splicing fitness (ln)” value (37 °C) was 0.32 ± 0.19.

In the case of CGUCAGCAAUAUUACGUGUC, the “self-splicing fitness (ln)” value (30 °C) is reported as -3.72 ± 0.17 and the “self-splicing fitness (ln)” value (37 °C) is reported as -2.96 ± 0.19.
